Test results from the DeepSol protein solubility set.

Assay: soluble on expression in E. coli; label from the status in PepcDB or PDB records

Row | Sequence | soluble on expression in E. coli
1 | MSLKVVKFGGSSLASASQLEKVLNIVKSDSERRFVVVSAPGKRNAEDTKVTDALIKYYRDYVAGNDISKNQSWIIDRYAAMVSELGLKPAVLEKISKSIHALATLPIEENEFLYDTFLAAGENNNAKLIAAYFNQNGIDARYMHPREAGIVVTSEPGHARIIPSSYDKIEELTNTNEVLVIPGFFGVTKENQICTFSRGGSDITGSIIAAGVKADLYENFTDVDGIFAAHPGIIHQPHSIPELTYREMRELAYAGFSVLHDEALLPAYRGKIPLVIKNTNNPDHPGTRIVLKHSNDEFPVVGIAGDSGFVSINMSKYLMNREVGFGRKVLQILEELNIGWEHMPTGIDDLSIILRSRQLTPIKEEEILRQLVQKAKVDHAEIEHDLSIIMIVGEKMKSHIGVTATATRALSENKINIQMMSQGSSEVSIMFVVNKDQEKAAIKALYNAFFGESKEDEGHHHHHH | soluble
2 | MSLKYGHVAWIQQILDGSYADAMNTLKNITVDDSKKGESLSECELHLNVAKLSSLLVEKDNLDINTLRKIQYNLDTIDAEKNISNKLKKGEVQICKRFKNGSIREVFNILVEELKSTTVVNLSDLVELYSMLDDEESLFIPLRLLSVDGNLLNFEVKKFLNALVWRRIVLLNASNEGDKLLQHIVKRVFDEELPKNNDFPLPSVDLLCDKSLLTPEYISETYGRFPIDQNAIREEIYEEISQVETLNSEGHHHHHH | not soluble
3 | MSLLHKDYHHFALTALEERKLAQLPPYSFLSLFRAEANHTAQVEDFLRQVRETLRCNPWFDSECMVLGPTPAPLAKRAGKFRWQLLLQTPNRTLMQKILQSARPALQQLPLASKVRWSIDIDPQDLSEGHHHHHH | soluble
4 | MSLLKKIERAQQLLKKEAAVFRCPTCHEPMHLEGVGLICQQRHQFDLSKKGTLYFLNHGVQTEYNKKMFTSRGKMIQSGMYAPVLNKIMHYLPQNKTVVDVGCGEGSFLAELSQAGLSGLKIGFDLSKEGIYLASNQPIDAFWCVADLTNLPFANEGLDTILNIFSPSHYQEFRRVLKADGTVIKIIPEENYLKELRAAFYPNDEKKQSYSNQKVVQRFAEELAVEVDERITYCFDIPEERRLDLLEMSPLEWQVSQEVKAELQQRPLEKITIDVRLLVGRKREGHHHHHH | soluble
5 | MSLLKQKITQAPKTKISQTLRSWLPILQANIEDLKENLDKFAEDNPFLNVQDSIQTHDKGKNYFDSFYKHNVNSAFVDSKGLAKKSVYELLNEQILPPLFPTNKSQELAKKIIECLNEEGYFEYDEEFLKEYSLEEIERVRARFKFLDPVGVGAKDYKEAFLFALENMELDEDIDEFCRMLIMDFENIQNYTKEPLYKEALAVLKRFSTPPFLEYFEDSRIIVPDIFVYKENGEIKVKINDDYYPEISIQTDGLEHDFLSHYIKEAKNLVDALAMRKATLYKIGLMIVEYQYDFFMGKEIKPMTFKDLALDLERNASTISRAVANKYLSCERGLIPLRDFFAFALDEEGETSNVGVKEFVANLVKNEDRNKPLSDSKILELIKEEFKVDIGRRTITKYRKHLNIASSTDRKKLYELEGEGHHHHHH | soluble
6 | MSLLLENCKLETGFSTVNQRIVATETASYDIRIENEVCTAVAPQLRPLENETVIDVNQQLVLPALREMHIHIDKTYFGGPWKACRPLTKGILTRIEEETWLLPEQLPTSLERACQVIEQYIQQGHYHIRSHCNVDPSIGTKHIEITKEAFSRYEQYITHEIVAFPQHGLLRSQVEPLMREALRMGATHVGGVDPALVDRHVDHSIAKIFELATTFNKKIDVHLHARDTLGLYEFNKFVDYTEQAKMFGKVTLSHALALGSLEEAAIRDIAQKFIETGIDLTSTVPIGMPTMPIPTLVEQGVKISVAHDSLTDHWSPFGSGNTIEKLNTAAQRFKISDEYRLNRLWGLASNFVTPLDPNGQQVWPNVGDSADFLLFNAESTAHVIARQQPIQQLILKGQLVEAVQKGEKEEGHHHHHH | soluble
7 | MSLLPGPLLIPSDSSTELTQTVLEGESISCFQVGGEKRLCLPQVLNSVLREFTLQQINTVCDELYIYCSRCTSDQLHILKVLGILPFNAPSCGLITLTDAQRLCNALLRPRTFPQNGSVLPAKSSLAQLKETGSAFEVEHECLGKCQGLFAPQFYVQPDAPCIQCLECCGMFAPQTFVMHSHRSPDKRTCHWGFESAKWHCYLHVNQKYLGTPEEKKLKIILEEMKEKFSMRSGKRNQSKTDAPSGMELQSWYPVIKQEGDHVSQTHSFLHPSYYLYMCDKVVAPNVSLTSAVSQSKELTKTEASKSISRQSEKAHSSGKLQKTVSYPDVSLEEQEKMDLKTSRELCSRLDASISNNSTSKRKSESATCNLVRDINKVGIGLVAAASSPLLVKDVICEDDKGKIMEEVMRTYLKQQEKLNLILQKKQQLQMEVKMLSSSKSMKELTEEQQNLQKELESLQNEHAQRMEEFYVEQKDLEKKLEQIMKQKCTCDSNLEKDKEAEYAGQLAELRQRLDHAEADRQELQDELRQEREARQKLEMMIKELKLQILKSSKTAKEEGHHHHHH | not soluble
8 | MSLLRSLRVFLVARTGSYPAGSLLRQSPQPRHTFYAGPRLSASASSKELLMKLRRKTGYSFVNCKKALETCGGDLKQAEIWLHKEAQKEGWSKAAKLQGRKTKEGLIGLLQEGNTTVLVEVNCETDFVSRNLKFQLLVQQVALGTMMHCQTLKDQPSAYSKGFLNSSELSGLPAGPDREGSLKDQLALAIGKLGENMILKRAAWVKVPSGFYVGSYVHGAMQSPSLHKLVLGKYGALVICETSEQKTNLEDVGRRLGQHVVGMAPLSVGSLDDEPGGEAETKMLSQPYLLDPSITLGQYVQPQGVSVVDFVRFECGEGEEAAETE | soluble
9 | MSLLSYRHAFHAGNHADMLKHFTLFLVLQYFNRKDKPYWYIDTHGGAGVYNLEGSEAQKVGEYRQGIALLRQAQNLPAELSDFAAHIQKILPSPELYCGSPWLAQSLTRVGDKLRLFELHPTDFVHLQNNMGEAGLGKRGQVLREDGYKGLISLLPPPPRRAAVLIDPPYEEKQDYWRVTETLKSALKRFESGCYLIWYPCLSREESRKLPEELKKLVPDNYLHAELHVHAPKADGFGMHGSGMFVINPPYLLAEQLAANLPALTRLLAQDEGARYLLDSKEGHHHHHH | soluble
10 | MSLNGTFEATKSCPAYLSKNRKSNPDNLMVEPNQKYQLKEINKTKPDWLRIQFSDHQPNLRWVSVDCGVIEYTERPKASCDLSPGMADSYVLALSSQPGFCETYGYEIGKPECLKLTKTVYQANHLILHGLWPNQEACGHNYGYCGISPRTNHCDYSPLDLSSDVAQNLKKLMPSYNYGSCLERHEWNKHGSCQDLSTDGYFSLAMRLTTEVNNTEFGQYLTAHRGDTVKLTTLRELIKRSFGENNTGKVTLSCKNGILVDIYVQLPALIPFKESLESLVDKASEGHHHHHH | not soluble
11 | MSLNIAMTGATGYIGKHLSNYLTEKGGHRIIPLGRAMFREGMSGLLVQTLTHCDVIINLAGAPINQRWTPEHKQELFNSRITVTHRIIRALNAVKTKPKLMISASAVGYYPSLVESDEYTQTRGDGFLSDLCYAWEKEAKRCPQPTRLVITRFGVVLSPDGGAMQQMLRPLRATKVAAVIGPGTQPFPWIDIRDLCCAMAFFIENEELRGVFNLVAPQAVSQSTFTRAMGKAYHAWTTLIVPQAVFRLFYGEAASFLTAGQRVRPTRLLEAGFHFSVPTIEKLFEGEGHHHHHH | soluble
12 | MSLNIFDHYRQRYEAAKDEEFTLQEFLTTCRQDRSAYANAAERLLMAIGEPVMVDTAQDPRLSRLFSNRVIARYPAFEEFYGMEDAIEQIVSYLKHAAQGLEEKKQILYLLGPVGGGKSSLAERLKSLMQLVPIYVLSANGERSPVNDHPFCLFNPQEDAQILEKEYGIPRRYLGTIMSPWAAKRLHEFGGDITKFRVVKVWPSILQQIAIAKTEPGDENNQDISALVGKVDIRKLEHYAQNDPDAYGYSGALCRANQGIMEFVEMFKAPIKVLHPLLTATQEGNYNGTEGISALPFNGIILAHSNKSEWVTFRNNKNNEAFLDRVYIVKVPYCLRISEEIKIYEKLLNHSELTHAPCAPGTLETLSRFSILSRLKEPENSSIYSKMRVYDGESLKDTDPKAKSYQEYRDYAGVDEGMNGLSTRFAFKILSRVFNFDHVEVAANPVHLFYVLEQQIEVYWQEGHHHHHH | not soluble
13 | MSLNKKIILLADDDRDDIEMFCEALEMVNENVICECAENGDQAWRMLNDNNEKPQLIFLDINMPIMNGWECLKLIKKDENYQDIPVIMISTSSHKNDMETASKLGALGYFVKPNDFNDLKSMLKIITSNEGTDEGHHHHHH | soluble
14 | MSLNLSRIGLDLAKQVFQVHGVDRHEHVVCRRQLKRAQVRDFFRQLPPCLVAMEACGSAHYWARELRELGHTVRLIAPQFVKPYVKGDKHDAHDAEAICEAASRPSMRYVPVKSAEQQAVQSMHRVRSRLVRARTALCNEVRGLLGEFGLIATRRGRAATMALLETVMATEPAPLPAPMGELLRELKDELQTLEARIARLERQIQAHVRGDARIQRLLAVEGIGPISASAVAASAGDARQFRTGRQFAAWLGLVPRQHSTGGQQRLGNISKRGDTYLRTLLIHGARAVVRCCANKTDARSRWLQGLLQRRPANVVAVALANKNARILWALLSRETCYRPGEGHHHHHH | not soluble
15 | MSLNNQANKLRNLMSQNGTKKSQNTHFIAITSGKGGVGKSTISANLANVLANNGYKVGLFDADIGLANLDVILNVRIQKNLLHVLRGECSLEDILIEVKPNLWLIPGESGDEILKYNDKNIYERFLNQASILDELDFLIIDTGAGIGGNILNFLEMADEVIVVTVPDPAAITDAYATIKTTSKTKENLLMLFNVVKNENEALKVFENIKKVADANIKNPLNLEFLGHLSASKDVSGSIKKRTLFSDENTASSDEIKALASKLLYRLERKVLDNVSNRSFSSFFRKIIEREGHHHHHH | soluble
16 | MSLNPFQKIKSAVNKRQRFFINRTLQRKLTNQGMTVISANCVGAFILHDLHQPFNSPFVNLYLSPQDFLRYLQNIDFYLTQPLTFVQTEKSYPVGKLADLEIHFMHYHSEQEANEKWQLRTSRMKLDNLFIMMTDRDGVTEKDIQLFDQLPFKNKVIFTHKPYPAFKSAYYIKGFEKQNQVGDIFEFSGWNGKKYYDQFDYVKWFNHAEGHHHHHH | soluble
17 | MSLNQNPVEEGQKFPLTIRRMGINGEGIGYFKKAVVFVPGAITGEEVVVEAVKVRDRFTEAKLNKIRKKSPNRVTAPCPVYEACGGCQLQHVAYSAQLELKRDIVIQSIEKHTKIDPTKLKIRPTIGMEDPWRYRNKSQFQTRMVGSGQVETGLFGANSHQLVPIEDCIVQQPVTIKVTNFVRDLLEKYGVPIYDEKAGSGIVRTIVVRTGVKTGETQLVFITNSKKLPKKREMLAEIEAALPEVTSIMQNVNQAKSSLIFGDETFLLAGKESIEEKLMELEFDLSARAFFQLNPFQTERLYQEVEKALVLTGSETLVDAYCGVGTIGQAFAGKVKEVRGMDIIPESIEDAKRNAEKNGIENVYYEVGKAEDVLPKWVKEGFRPDAVIVDPPRSGCDQGLIKSLLDVEAKQLVYVSCNPSTLARDLALLAKKYRIRYMQPVDMFPQTAHVETVVLLQLKDKEGHHHHHH | soluble
18 | MSLNQQYNAFSVLVVDDELGMQAILKKALGKLFSHVDTAGSIEEAEQLRNSRHYDLILLDINLPGRSGIEWEEAFEDDEKRADVIFMTGYADLEIAIRALQLGASDFILKPFNLEQMLKAVSRCMDRRLNERMQYAMKRDYQRHNTSEIIGGSEKTRQLKQLITQFAPSRASVLVEGESGTGKELVARGIHQASGRTGPFVPINCGAIAPELLESELFGHTSGAFTGAKKSREGLFRVANGGTLFLDEIGEMPLSMQASLLRVLEQRTIRPVGSEREISIDVRIVAATNRNLQEEVNQGNFRSDLYYRLNVLKIEVCPLRERKTDLFELVPFFSNMLTRELGMPAPKWAHEDMEAMSEYDWPGNIRELKNLIERCILLGKPPAHYWRELNGGHSLPNVSEGHHHHHH | soluble
